Reference: patent US20050282743A1, “Molecular interactions in cells” (Arbor Vita Corporation, priority 2001, published 2005)
Blank lines part the entries; values can stand above or below the binder they belong to.

Assays:
[1] = molecular target: GST-Atrophin-1 Interacting Protein PDZ domain 1 (Rattus norvegicus (Rat)), O88382; test: G' assay; note: key of the grades not given here
[2] = molecular target: T1, GST-BAI-1 Associated Protein PDZ domain 2 (Mus musculus (Mouse)), Q6RHR9; test: G' assay; note: key of the grades not given here
[3] = molecular target: GST-DLG1 PDZ domain 1 (Homo sapiens), Q12959; test: G' assay; note: key of the grades not given here
[4] = molecular target: T2, GST-DLG1 PDZ domain 2 (Homo sapiens), Q12959; test: G' assay; note: key of the grades not given here
T2 chain: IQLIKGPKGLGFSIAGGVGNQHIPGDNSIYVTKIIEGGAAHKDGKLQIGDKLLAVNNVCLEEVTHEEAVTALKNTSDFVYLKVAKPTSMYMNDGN

[5] = molecular target: T3, GST-DLG1 PDZ domain 3 (Homo sapiens), Q12959; test: G' assay; note: key of the grades not given here
T3 chain: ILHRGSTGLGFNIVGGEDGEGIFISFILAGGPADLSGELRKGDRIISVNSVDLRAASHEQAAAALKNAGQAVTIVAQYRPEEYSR

[6] = molecular target: GST-DLG1 PDZ domains 1, 2 (Homo sapiens), Q12959; test: G' assay; note: key of the grades not given here
[7] = molecular target: GST-DLG2 PDZ domain 1 (Homo sapiens (Human)), Q15700; test: G' assay; note: key of the grades not given here
[8] = molecular target: T4, GST-DLG2 PDZ domain 2 (Homo sapiens (Human)), Q15700; test: G' assay; note: key of the grades not given here
T4 chain: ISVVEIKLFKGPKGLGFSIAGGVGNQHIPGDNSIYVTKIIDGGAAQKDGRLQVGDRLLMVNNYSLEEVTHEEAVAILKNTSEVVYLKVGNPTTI

[9] = molecular target: GST-KIAA0147 PDZ domain 1 (Homo sapiens (Human)), Q14160; test: G' assay; note: key of the grades not given here
[10] = molecular target: T5, GST-KIAA0303 PDZ domain 1 (Homo sapiens (Human)), O15021; test: G' assay; note: key of the grades not given here
T5 chain: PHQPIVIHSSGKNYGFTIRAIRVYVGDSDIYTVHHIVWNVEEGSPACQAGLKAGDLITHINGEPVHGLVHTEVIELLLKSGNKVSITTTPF

[11] = molecular target: T6, GST-KIAA0807(S) PDZ domain 1 (Homo sapiens (Human)), Q6P0Q8; test: G' assay; note: key of the grades not given here
T6 chain: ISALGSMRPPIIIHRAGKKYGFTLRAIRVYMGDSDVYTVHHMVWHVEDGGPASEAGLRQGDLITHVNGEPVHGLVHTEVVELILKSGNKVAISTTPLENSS

[12] = molecular target: GST-KIAA1634 PDZ domain 1 (Homo sapiens (Human)), Q5TCQ9; test: G' assay; note: key of the grades not given here
[13] = molecular target: T7, GST-KIAA1719 PDZ domain 3 (Homo sapiens (Human)), Q9C0E4; test: G' assay; note: key of the grades not given here
T7 chain: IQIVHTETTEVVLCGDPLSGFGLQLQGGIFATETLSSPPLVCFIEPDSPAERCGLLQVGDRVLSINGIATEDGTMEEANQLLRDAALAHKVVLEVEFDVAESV

[14] = molecular target: T8, GST-MUPP1 PDZ domain 10 (Homo sapiens (Human)), O75970; test: G' assay; note: key of the grades not given here
T8 chain: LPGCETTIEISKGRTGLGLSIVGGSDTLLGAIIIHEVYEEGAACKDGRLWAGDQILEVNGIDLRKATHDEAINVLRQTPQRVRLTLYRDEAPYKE

[15] = molecular target: T9, GST-MUPP1 PDZ domain 11 (Homo sapiens (Human)), O75970; test: G' assay; note: key of the grades not given here
T9 chain: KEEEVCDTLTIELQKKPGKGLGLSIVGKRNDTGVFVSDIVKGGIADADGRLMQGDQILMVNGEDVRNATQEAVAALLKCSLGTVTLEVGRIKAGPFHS

[16] = molecular target: T10, GST-NeDLG PDZ domain 2 (Rattus norvegicus (Rat)), Q62936; test: G' assay; note: key of the grades not given here
T10 chain: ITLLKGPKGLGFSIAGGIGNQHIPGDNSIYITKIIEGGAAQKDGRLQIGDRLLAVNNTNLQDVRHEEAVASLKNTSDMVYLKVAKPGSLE

[17] = molecular target: T11, GST-NeDLG PDZ domain 3 (Mus musculus (Mouse)), P70175; test: G' assay; note: key of the grades not given here
T11 chain: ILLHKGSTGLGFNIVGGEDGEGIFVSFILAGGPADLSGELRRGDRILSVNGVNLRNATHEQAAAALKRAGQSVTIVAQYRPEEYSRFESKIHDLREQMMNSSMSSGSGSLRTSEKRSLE

[18] = molecular target: T12, GST-NeDLG PDZ domains 1, 2, Q92796; test: G' assay; note: key of the grades not given here
T12 chain: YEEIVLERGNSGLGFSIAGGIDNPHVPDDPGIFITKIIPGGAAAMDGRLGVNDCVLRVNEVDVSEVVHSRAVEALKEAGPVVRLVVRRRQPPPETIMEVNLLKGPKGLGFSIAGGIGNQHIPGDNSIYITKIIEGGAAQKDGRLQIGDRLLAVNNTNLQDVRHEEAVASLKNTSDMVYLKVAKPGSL

[19] = molecular target: GST-PSD95 PDZ domain 1 (Homo sapiens); test: G' assay; note: key of the grades not given here
[20] = molecular target: T13, GST-PSD95 PDZ domain 3 (Homo sapiens); test: G' assay; note: key of the grades not given here
T13 chain: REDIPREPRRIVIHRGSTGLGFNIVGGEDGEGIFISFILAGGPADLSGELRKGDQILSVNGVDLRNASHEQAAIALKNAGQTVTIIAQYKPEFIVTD

[21] = molecular target: GST-PSD95 PDZ domains 1, 2, 3 (Homo sapiens), P78352; test: G' assay; note: key of the grades not given here
[22] = molecular target: T1, GST-BAI-1 Associated Protein PDZ domain …; test: G assay titration, PDZ 1 ug/ml
[23] = molecular target: T12, GST-NeDLG PDZ domains 1, 2, Q92796; test: G assay titration, PDZ 1 ug/ml
[24] = molecular target: T13, GST-PSD95 PDZ domain 3 (Homo sapiens); test: G assay titration, PDZ 1 ug/ml
[25] = molecular target: T14, GST-EZRIN Binding Protein 50 PDZ domain 1 (Homo sapiens (Human)), O14745; test: G' assay; note: key of the grades not given here
T14 chain: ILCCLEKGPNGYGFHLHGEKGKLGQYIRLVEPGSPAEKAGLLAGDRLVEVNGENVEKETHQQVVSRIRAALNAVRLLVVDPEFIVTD

[26] = molecular target: T15, GST-EZRIN Binding Protein 50 PDZ domain 2 (Homo sapiens (Human)), O14745; test: G' assay; note: key of the grades not given here
T15 chain: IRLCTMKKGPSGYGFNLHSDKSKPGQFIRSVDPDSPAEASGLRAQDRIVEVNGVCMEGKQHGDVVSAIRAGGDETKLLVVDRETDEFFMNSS

[27] = molecular target: T16, GST-KIAA0561 PDZ domain 1 (Homo sapiens (Human)), O60307; test: G' assay; note: key of the grades not given here
T16 chain: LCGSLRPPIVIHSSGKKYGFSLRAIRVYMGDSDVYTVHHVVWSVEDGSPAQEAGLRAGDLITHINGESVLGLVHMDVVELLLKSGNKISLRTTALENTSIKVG

[28] = molecular target: GST-KIAA807 [GST: P08515]; test: G' assay; note: key of the grades not given here
[29] = molecular target: T17, GST-PDZK1 PDZ domain 2 (Homo sapiens (Human)), Q5T2W1; test: G' assay; note: key of the grades not given here
T17 chain: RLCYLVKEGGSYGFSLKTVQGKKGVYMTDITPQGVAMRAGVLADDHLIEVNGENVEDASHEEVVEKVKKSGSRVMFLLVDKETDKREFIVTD

[30] = molecular target: T18, GST-PDZK1 PDZ domains 2, 3, 4, Q5T2W1; test: G' assay; note: key of the grades not given here
T18 chain: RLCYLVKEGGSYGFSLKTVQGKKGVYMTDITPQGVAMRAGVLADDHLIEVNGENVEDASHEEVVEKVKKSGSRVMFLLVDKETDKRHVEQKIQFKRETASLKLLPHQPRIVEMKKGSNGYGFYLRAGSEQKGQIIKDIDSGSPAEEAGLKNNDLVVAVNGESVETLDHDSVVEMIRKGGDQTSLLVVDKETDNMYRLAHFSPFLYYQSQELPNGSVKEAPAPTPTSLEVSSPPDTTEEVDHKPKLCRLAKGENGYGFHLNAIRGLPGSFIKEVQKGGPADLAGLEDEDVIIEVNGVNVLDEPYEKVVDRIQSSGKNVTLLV

[31] = molecular target: T19, GST-Shank 1 PDZ domain 1 (Homo sapiens (Human)), Q9UPX8; test: G' assay; note: key of the grades not given here
T19 chain: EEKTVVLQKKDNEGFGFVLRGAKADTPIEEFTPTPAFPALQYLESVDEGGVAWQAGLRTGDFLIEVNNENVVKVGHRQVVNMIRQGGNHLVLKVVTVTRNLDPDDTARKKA

[32] = molecular target: T20, GST-Shank 3 PDZ domain 1 (human (hypothetical, computer cloned)), Q9BYB0; test: G' assay; note: key of the grades not given here
T20 chain: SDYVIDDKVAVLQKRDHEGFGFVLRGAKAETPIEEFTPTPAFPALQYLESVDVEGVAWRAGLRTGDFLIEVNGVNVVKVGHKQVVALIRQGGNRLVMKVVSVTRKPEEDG

[33] = molecular target: T17, GST-PDZK1 PDZ domain 2 (Homo sapiens …); test: G assay titration, PDZ 5 ug/ml
[34] = molecular target: T6, GST-KIAA0807(S) PDZ domain 1 (Homo …); test: G assay titration, PDZ 0.3 ug/ml
[35] = molecular target: T21, GST-Outer Membrane PDZ domain 1 (Homo sapiens (Human)), P57105; test: G' assay; note: key of the grades not given here
T21 chain: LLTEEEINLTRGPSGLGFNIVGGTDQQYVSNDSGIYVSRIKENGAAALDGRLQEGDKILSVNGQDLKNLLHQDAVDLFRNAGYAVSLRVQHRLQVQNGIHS

[36] = molecular target: GST-DLG1 PDZ domains 1, 2 (Homo sapiens), Q12959; test: G assay titration, PDZ 5 ug/ml

Chain of GST-Atrophin-1 Interacting Protein PDZ domain 1 (Rattus norvegicus (Rat)), O88382 (O88382 408-511): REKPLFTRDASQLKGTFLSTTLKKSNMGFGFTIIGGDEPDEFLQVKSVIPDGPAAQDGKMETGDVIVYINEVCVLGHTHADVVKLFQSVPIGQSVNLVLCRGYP
T1 sequence (Q6RHR9 455-558): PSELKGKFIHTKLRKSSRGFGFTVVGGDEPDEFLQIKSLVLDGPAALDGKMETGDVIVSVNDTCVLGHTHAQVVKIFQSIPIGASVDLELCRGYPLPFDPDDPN
Chain of GST-KIAA1634 PDZ domain 1 (Homo sapiens (Human)), Q5TCQ9 (Q5TCQ9 401-502): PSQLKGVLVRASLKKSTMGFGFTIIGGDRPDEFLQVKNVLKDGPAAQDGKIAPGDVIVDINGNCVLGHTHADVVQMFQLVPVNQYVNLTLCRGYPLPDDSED
Chain of GST-PSD95 PDZ domains 1, 2, 3 (Homo sapiens), P78352 (P78352 62-395): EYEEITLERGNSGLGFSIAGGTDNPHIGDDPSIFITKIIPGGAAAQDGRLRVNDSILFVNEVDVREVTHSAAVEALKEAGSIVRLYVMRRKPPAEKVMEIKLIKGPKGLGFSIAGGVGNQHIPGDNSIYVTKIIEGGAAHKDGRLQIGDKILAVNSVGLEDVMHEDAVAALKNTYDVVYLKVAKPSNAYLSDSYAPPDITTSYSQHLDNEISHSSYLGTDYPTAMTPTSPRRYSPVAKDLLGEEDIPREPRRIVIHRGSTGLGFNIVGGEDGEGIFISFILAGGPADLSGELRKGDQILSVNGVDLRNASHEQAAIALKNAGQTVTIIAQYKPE
Chain of GST-KIAA807 [GST: P08515] (P08515 whole entry, the tested form may be a part): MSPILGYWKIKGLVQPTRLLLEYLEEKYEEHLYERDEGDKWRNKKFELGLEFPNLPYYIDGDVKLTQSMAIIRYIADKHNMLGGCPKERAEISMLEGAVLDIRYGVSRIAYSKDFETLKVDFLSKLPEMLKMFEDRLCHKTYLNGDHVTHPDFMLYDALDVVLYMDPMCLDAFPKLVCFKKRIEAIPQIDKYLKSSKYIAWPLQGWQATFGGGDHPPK
Chain of GST-KIAA0147 PDZ domain 1 (Homo sapiens (Human)), Q14160 (Q14160 other isoform, or with tags, fused parts or gaps): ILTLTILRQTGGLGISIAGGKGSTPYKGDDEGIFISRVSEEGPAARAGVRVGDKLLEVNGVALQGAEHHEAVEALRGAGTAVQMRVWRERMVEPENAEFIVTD

Classification [1]: 1 A450 class
Classification [2]: 5 A450 class
Classification [3]: 2 A450 class
Classification [4]: 2 A450 class
Classification [5]: 1 A450 class
Classification [6]: 5 A450 class
Classification [7]: 1 A450 class
Classification [8]: 1 A450 class
Classification [9]: 2 A450 class
Classification [10]: 1 A450 class
Classification [11]: 1 A450 class
Classification [12]: 5 A450 class
Classification [13]: 1 A450 class
Classification [14]: 2 A450 class
Classification [15]: 1 A450 class
Classification [16]: 1 A450 class
Classification [17]: 2 A450 class
Classification [18]: 5 A450 class
Classification [19]: 3 A450 class
Classification [20]: 5 A450 class
Classification [21]: 5 A450 class
Kd [22]: 300 nM
Kd [23]: 100 nM
Kd [24]: 100 nM
Binder: SFTSILTCHQRRTQRKETVA (modifications not checked) [GluR5-2 (rat)]

Classification [25]: 3 A450 class
Classification [26]: 3 A450 class
Classification [27]: 1 A450 class
Classification [11]: 2 A450 class
Classification [28]: 2 A450 class
Classification [29]: 1 A450 class
Classification [30]: 1 A450 class
Classification [31]: 3 A450 class
Classification [32]: 3 A450 class
Kd [33]: 2000 nM
Kd [34]: 1000 nM
Binder: PSWRRSSLSESENATSLTTF (modifications not checked) [BLR-1]

Classification [1]: 1 A450 class
Classification [4]: 1 A450 class
Classification [6]: 2 A450 class
Classification [8]: 1 A450 class
Classification [12]: 1 A450 class
Classification [18]: 1 A450 class
Classification [35]: 4 A450 class
Classification [21]: 2 A450 class
Kd [36]: 5000 nM
Binder: LHNQASVPLEPRPLRRESEI (modifications not checked) [Kir2.1 (inwardly rect. K+ channel)]
